This is an account of results in patent US9284543B2, “Neutral active soluble truncated PH20 polypeptides and uses thereof” (Halozyme, Inc., priority 2008, dated 2016).

First the molecules themselves.
B1: SPAM1-FIVS: C-terminally truncated human PH20, precursor 497 aa (SEQ ID NO:8), mature 462 aa (SEQ ID NO:60) (protein, listed as Homo sapiens)
chain 1: MGVLKFKHIFFRSFVKSSGVSQIVFTFLLIPCCLTLNFRAPPVIPNVPFLWAWNAPSEFCLGKFDEPLDMSLFSFIGSPRINATGQGVTIFYVDRLGYYPYIDSITGVTVNGGIPQKISLQDHLDKAKKDITFYMPVDNLGMAVIDWEEWRPTWARNWKPKDVYKNRSIELVQQQNVQLSLTEATEKAKQEFEKAGKDFLVETIKLGKLLRPNHLWGYYLFPDCYNHHYKKPGYNGSCFNVEIKRNDDLSWLWNESTALYPSIYLNTQQSPVAATLYVRNRVREAIRVSKIPDAKSPLPVFAYTRIVFTDQVLKFLSQDELVYTFGETVALGASGIVIWGTLSIMRSMKSCLLLDNYMETILNPYIINVTLAAKMCSQVLCQEQGVCIRKNWNSSDYLHLNPDNFAIQLEKGGKFTVRGKPTLEDLEQFSEKFYCSCYSTLSCKEKADVKDTDAVDVCIADGVCIDAFLKPPMETEEPQIFYNASPSTLSATMFIVS
chain 2: LNFRAPPVIPNVPFLWAWNAPSEFCLGKFDEPLDMSLFSFIGSPRINATGQGVTIFYVDRLGYYPYIDSITGVTVNGGIPQKISLQDHLDKAKKDITFYMPVDNLGMAVIDWEEWRPTWARNWKPKDVYKNRSIELVQQQNVQLSLTEATEKAKQEFEKAGKDFLVETIKLGKLLRPNHLWGYYLFPDCYNHHYKKPGYNGSCFNVEIKRNDDLSWLWNESTALYPSIYLNTQQSPVAATLYVRNRVREAIRVSKIPDAKSPLPVFAYTRIVFTDQVLKFLSQDELVYTFGETVALGASGIVIWGTLSIMRSMKSCLLLDNYMETILNPYIINVTLAAKMCSQVLCQEQGVCIRKNWNSSDYLHLNPDNFAIQLEKGGKFTVRGKPTLEDLEQFSEKFYCSCYSTLSCKEKADVKDTDAVDVCIADGVCIDAFLKPPMETEEPQIFYNASPSTLSATMFIVS
modifications: HuPH20 precursor 1-497; esHuPH20 36-497
B2: SPAM1-SATM: C-terminally truncated human PH20, precursor 493 aa (SEQ ID NO:10), mature 458 aa (SEQ ID NO:62) (protein, listed as Homo sapiens)
chain 1: MGVLKFKHIFFRSFVKSSGVSQIVFTFLLIPCCLTLNFRAPPVIPNVPFLWAWNAPSEFCLGKFDEPLDMSLFSFIGSPRINATGQGVTIFYVDRLGYYPYIDSITGVTVNGGIPQKISLQDHLDKAKKDITFYMPVDNLGMAVIDWEEWRPTWARNWKPKDVYKNRSIELVQQQNVQLSLTEATEKAKQEFEKAGKDFLVETIKLGKLLRPNHLWGYYLFPDCYNHHYKKPGYNGSCFNVEIKRNDDLSWLWNESTALYPSIYLNTQQSPVAATLYVRNRVREAIRVSKIPDAKSPLPVFAYTRIVFTDQVLKFLSQDELVYTFGETVALGASGIVIWGTLSIMRSMKSCLLLDNYMETILNPYIINVTLAAKMCSQVLCQEQGVCIRKNWNSSDYLHLNPDNFAIQLEKGGKFTVRGKPTLEDLEQFSEKFYCSCYSTLSCKEKADVKDTDAVDVCIADGVCIDAFLKPPMETEEPQIFYNASPSTLSATM
chain 2: LNFRAPPVIPNVPFLWAWNAPSEFCLGKFDEPLDMSLFSFIGSPRINATGQGVTIFYVDRLGYYPYIDSITGVTVNGGIPQKISLQDHLDKAKKDITFYMPVDNLGMAVIDWEEWRPTWARNWKPKDVYKNRSIELVQQQNVQLSLTEATEKAKQEFEKAGKDFLVETIKLGKLLRPNHLWGYYLFPDCYNHHYKKPGYNGSCFNVEIKRNDDLSWLWNESTALYPSIYLNTQQSPVAATLYVRNRVREAIRVSKIPDAKSPLPVFAYTRIVFTDQVLKFLSQDELVYTFGETVALGASGIVIWGTLSIMRSMKSCLLLDNYMETILNPYIINVTLAAKMCSQVLCQEQGVCIRKNWNSSDYLHLNPDNFAIQLEKGGKFTVRGKPTLEDLEQFSEKFYCSCYSTLSCKEKADVKDTDAVDVCIADGVCIDAFLKPPMETEEPQIFYNASPSTLSATM
modifications: HuPH20 precursor 1-493; esHuPH20 36-493
B3: SPAM1-SILF: C-terminally truncated human PH20, precursor 500 aa (SEQ ID NO:48), mature 465 aa (SEQ ID NO:100) (protein, listed as Homo sapiens)
chain 1: MGVLKFKHIFFRSFVKSSGVSQIVFTFLLIPCCLTLNFRAPPVIPNVPFLWAWNAPSEFCLGKFDEPLDMSLFSFIGSPRINATGQGVTIFYVDRLGYYPYIDSITGVTVNGGIPQKISLQDHLDKAKKDITFYMPVDNLGMAVIDWEEWRPTWARNWKPKDVYKNRSIELVQQQNVQLSLTEATEKAKQEFEKAGKDFLVETIKLGKLLRPNHLWGYYLFPDCYNHHYKKPGYNGSCFNVEIKRNDDLSWLWNESTALYPSIYLNTQQSPVAATLYVRNRVREAIRVSKIPDAKSPLPVFAYTRIVFTDQVLKFLSQDELVYTFGETVALGASGIVIWGTLSIMRSMKSCLLLDNYMETILNPYIINVTLAAKMCSQVLCQEQGVCIRKNWNSSDYLHLNPDNFAIQLEKGGKFTVRGKPTLEDLEQFSEKFYCSCYSTLSCKEKADVKDTDAVDVCIADGVCIDAFLKPPMETEEPQIFYNASPSTLSATMFIVSILF
chain 2: LNFRAPPVIPNVPFLWAWNAPSEFCLGKFDEPLDMSLFSFIGSPRINATGQGVTIFYVDRLGYYPYIDSITGVTVNGGIPQKISLQDHLDKAKKDITFYMPVDNLGMAVIDWEEWRPTWARNWKPKDVYKNRSIELVQQQNVQLSLTEATEKAKQEFEKAGKDFLVETIKLGKLLRPNHLWGYYLFPDCYNHHYKKPGYNGSCFNVEIKRNDDLSWLWNESTALYPSIYLNTQQSPVAATLYVRNRVREAIRVSKIPDAKSPLPVFAYTRIVFTDQVLKFLSQDELVYTFGETVALGASGIVIWGTLSIMRSMKSCLLLDNYMETILNPYIINVTLAAKMCSQVLCQEQGVCIRKNWNSSDYLHLNPDNFAIQLEKGGKFTVRGKPTLEDLEQFSEKFYCSCYSTLSCKEKADVKDTDAVDVCIADGVCIDAFLKPPMETEEPQIFYNASPSTLSATMFIVSILF
modifications: HuPH20 precursor 1-500; Mature HuPH20 36-500
B4: SPAM1-TMFI: C-terminally truncated human PH20, precursor 495 aa (SEQ ID NO:9), mature 460 aa (SEQ ID NO:61) (protein, listed as Homo sapiens)
chain 1: MGVLKFKHIFFRSFVKSSGVSQIVFTFLLIPCCLTLNFRAPPVIPNVPFLWAWNAPSEFCLGKFDEPLDMSLFSFIGSPRINATGQGVTIFYVDRLGYYPYIDSITGVTVNGGIPQKISLQDHLDKAKKDITFYMPVDNLGMAVIDWEEWRPTWARNWKPKDVYKNRSIELVQQQNVQLSLTEATEKAKQEFEKAGKDFLVETIKLGKLLRPNHLWGYYLFPDCYNHHYKKPGYNGSCFNVEIKRNDDLSWLWNESTALYPSIYLNTQQSPVAATLYVRNRVREAIRVSKIPDAKSPLPVFAYTRIVFTDQVLKFLSQDELVYTFGETVALGASGIVIWGTLSIMRSMKSCLLLDNYMETILNPYIINVTLAAKMCSQVLCQEQGVCIRKNWNSSDYLHLNPDNFAIQLEKGGKFTVRGKPTLEDLEQFSEKFYCSCYSTLSCKEKADVKDTDAVDVCIADGVCIDAFLKPPMETEEPQIFYNASPSTLSATMFI
chain 2: LNFRAPPVIPNVPFLWAWNAPSEFCLGKFDEPLDMSLFSFIGSPRINATGQGVTIFYVDRLGYYPYIDSITGVTVNGGIPQKISLQDHLDKAKKDITFYMPVDNLGMAVIDWEEWRPTWARNWKPKDVYKNRSIELVQQQNVQLSLTEATEKAKQEFEKAGKDFLVETIKLGKLLRPNHLWGYYLFPDCYNHHYKKPGYNGSCFNVEIKRNDDLSWLWNESTALYPSIYLNTQQSPVAATLYVRNRVREAIRVSKIPDAKSPLPVFAYTRIVFTDQVLKFLSQDELVYTFGETVALGASGIVIWGTLSIMRSMKSCLLLDNYMETILNPYIINVTLAAKMCSQVLCQEQGVCIRKNWNSSDYLHLNPDNFAIQLEKGGKFTVRGKPTLEDLEQFSEKFYCSCYSTLSCKEKADVKDTDAVDVCIADGVCIDAFLKPPMETEEPQIFYNASPSTLSATMFI
modifications: HuPH20 precursor 1-495; esHuPH20 36-495

One data set deals with CHO-S cells. Description: PI-PLC treatment of expressing cells, Western blot of media and cells. In kind it is cell-based, Chinese Hamster. To be noted: cells incubated with PI-PLC for 2 hours. The gist of the method: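 CHO-S cells transiently expressing rHuPH20 or C-terminal truncation mutants were treated with PI-PLC (0.5 units/well, or 3.0 units/dish in serum/detergent-free medium) for 2 h at 37 °C after 48–72 h expression. Untreated and treated media and cell extracts were analysed separately by Western blot for PH20.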
In general terms: Immunoblotting shows a protein as a band on a membrane.
In the case of B1, the “Expressed in Media Following Addition of PI-PLC” value (shortened to “Expressed … of PI-PLC”) is recorded as “Initially in media”.

With B2, the “Expressed … of PI-PLC” value is recorded as “Initially in media”.

Regarding B3, the “Expressed … of PI-PLC” value is recorded as “Initially in media”.

B4: the “Expressed … of PI-PLC” value is “Initially in media”.

A further data set has as its system CHO-S cells. Briefly: Western blot analysis of PH20 expression in media and cells after transient expression. To be noted: media versus cells. In kind it is cell-based, Chinese Hamster. The procedure, abridged:
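PH20 expression and solubility were judged by anti-PH20 Western blot of non-reduced media and cell fractions, with expression shown by a ~66 kDa band. Samples came from CHO-S cells transiently transfected (GeneJuice) with mutant PH20-HZ24 DNA and cultured 48-72 h. GPI-anchored mutants were cleaved with PI-PLC to release soluble protein.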
Take B1: the “Expressed in Media” value is “YES”.

For B2, the “Expressed in Media” value is “YES”.

In the case of B3, the “Expressed in Media” value was “WEAK/YES”.

With B4, the “Expressed in Media” value was “YES”.

Tested on in a further data set: not listed separately
Briefly: Microtiter hyaluronidase activity assay with biotinylated-hyaluronic acid. In kind it is biochemical. To be noted: Table 6; 72 hour post transfection supernatant; pH 5.5.
As for B1, the “pH 5.5 Activity” value amounted to 0.216 Units/ml.

For B2, the “pH 5.5 Activity” value is recorded as 0.7335 Units/ml.

For B4, the “pH 5.5 Activity” value is listed as 0.612 Units/ml.

The data set is the same for the next values; noted with them: Table 6; 72 hour post transfection supernatant; pH 7.4.
As for B1, the “pH 7.4 Activity” value is recorded as 0.1755 Units/ml.

Regarding B2, the “pH 7.4 Activity” value was 0.5715 Units/ml.

For the molecule B4, the “pH 7.4 Activity” value is reported as 0.45 Units/ml.

Staying with this data set, now noted: Table 6A; 72 hour post transfection supernatant; pH 5.5.
Take B1: the “pH 5.5 Activity” value was found to be 0.162 Units/ml.

In the case of B2, the “pH 5.5 Activity” value is reported as 0.851 Units/ml.

For B3, the “pH 5.5 Activity” value amounted to 0.162 Units/ml.

B4: the “pH 5.5 Activity” value was determined as 0.770 Units/ml.

Staying with this data set, now noted: Table 6A; 72 hour post transfection supernatant; pH 7.4.
Turning to B1, the “pH 7.4 Activity” value worked out at 0.365 Units/ml.

B2: the “pH 7.4 Activity” value is on record as 0.689 Units/ml.

For the molecule B3, the “pH 7.4 Activity” value stood at 0.365 Units/ml.

Turning to B4, the “pH 7.4 Activity” value was found to be 0.689 Units/ml.

The same data set, now with this note: pH 7.4 and pH 5.5.
In the case of B3, the “Hyaluronidase activity (in words)” value is on record as “little detectable activity”.

Tested on in the next data set: not listed separately
Briefly: Triton X-114 partition assay. In kind it is physicochemical. To be noted: partition into aqueous phase of Triton X-114 at 37° C. As for the experimental part: Solubility of a hyaluronidase can be determined by any method known to one of the skill in the art. One method for determining solubility is by detergent partitioning. […] For example, the solubility of the PH20 polypeptides described herein is assessed as described in Example 4. Membrane-anchored hyaluronidases, such as lipid-anchored hyaluronidases, including GPI-anchored hyaluronidases, will partition into the detergent-rich phase, but will partition into the detergent-poor or aqueous phase following treatment with Phospholipase C. Phospholipase C is an enzyme that cleaves the […] found in GPI-anchored proteins. Treatment with PLC will cause release of GPI-linked proteins from the outer cell membrane.
The samples were heated to 37° C. for 3 minutes to induce phase separation and centrifuged for 3 min at 4000 g at room temperature. Aqueous and detergent phases were removed for SDS-PAGE analysis and Western blotting. Rabbit anti-PH20 IgG (0.5 μg/mL) was used as the primary antibody and HRP-conjugated goat anti-Rabbit IgG (0.1 ng/mL, Cat#DC03L, EMD) was used as the secondary antibody. Full length human PH20, which partitions strongly into the detergent phase, was used as a control.
As for B1, the Soluble entry is given as “YES”.

In the case of B2, the Soluble result is recorded as “YES”.

With B3, the Soluble entry is reported as “YES”.

For B4, the Soluble result is “YES”.
